The target of the test is actin (of the actin-chitin affinity column). The test can be described thus: sequential dual-affinity chromatography; DBP of donor eluted from the 25-OH-D3/Sepharose column, loaded on the Actin/chitin column.

This note sets out measurements from article PMC10743851.

“vitamin D3-binding protein (DBP) of donor (from UniProt P02774 17-474) (natural protein)” registered a percent bound of less than 10%.
